Reference: patent US20260209362A1 (VIB VZW, published 2026)

T1: biotinylated recombinant human IL-12Rβ2 (produced in-house) (human, UniProt Q99665 24-622, randomly biotinylated)
T1 construct: also called hIL-12RB2; human IL-12RB2
T1 sequence: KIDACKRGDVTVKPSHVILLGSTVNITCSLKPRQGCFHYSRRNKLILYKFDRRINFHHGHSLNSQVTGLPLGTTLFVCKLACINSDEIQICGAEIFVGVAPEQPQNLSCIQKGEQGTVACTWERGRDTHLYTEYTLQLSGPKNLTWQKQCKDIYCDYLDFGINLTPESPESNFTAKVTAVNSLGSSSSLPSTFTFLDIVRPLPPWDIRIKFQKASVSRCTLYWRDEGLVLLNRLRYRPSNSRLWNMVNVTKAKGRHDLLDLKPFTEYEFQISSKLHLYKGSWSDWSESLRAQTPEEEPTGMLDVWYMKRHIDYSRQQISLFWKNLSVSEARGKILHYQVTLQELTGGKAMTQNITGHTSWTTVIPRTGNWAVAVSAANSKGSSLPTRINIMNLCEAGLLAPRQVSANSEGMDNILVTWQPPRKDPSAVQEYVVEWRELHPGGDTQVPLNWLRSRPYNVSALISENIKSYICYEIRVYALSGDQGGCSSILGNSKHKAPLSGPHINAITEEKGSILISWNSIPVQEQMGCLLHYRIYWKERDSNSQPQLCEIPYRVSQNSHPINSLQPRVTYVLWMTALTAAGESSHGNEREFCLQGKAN

T2: biotinylated recombinant mouse IL-12Rβ2 (produced in-house) (mouse, UniProt P97378 24-637, randomly biotinylated)
T2 construct: also called mIL-12RB2; mouse IL-12RB2
T2 sequence: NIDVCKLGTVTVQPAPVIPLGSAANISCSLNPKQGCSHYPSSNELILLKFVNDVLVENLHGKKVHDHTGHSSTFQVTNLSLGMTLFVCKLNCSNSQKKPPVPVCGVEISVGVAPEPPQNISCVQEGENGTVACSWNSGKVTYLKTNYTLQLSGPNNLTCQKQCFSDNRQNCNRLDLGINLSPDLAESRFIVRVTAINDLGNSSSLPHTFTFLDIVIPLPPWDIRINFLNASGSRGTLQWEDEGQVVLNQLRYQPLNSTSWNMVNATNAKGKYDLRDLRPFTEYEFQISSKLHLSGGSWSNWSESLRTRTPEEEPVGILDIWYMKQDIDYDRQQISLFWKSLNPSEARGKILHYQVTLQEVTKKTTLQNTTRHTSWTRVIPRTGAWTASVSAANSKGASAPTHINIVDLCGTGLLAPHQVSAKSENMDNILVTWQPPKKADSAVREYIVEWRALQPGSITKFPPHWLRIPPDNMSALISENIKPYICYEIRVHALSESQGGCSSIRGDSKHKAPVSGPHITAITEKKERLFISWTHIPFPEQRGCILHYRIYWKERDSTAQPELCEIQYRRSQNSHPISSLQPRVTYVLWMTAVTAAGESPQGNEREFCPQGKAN


How the values were obtained:
[1] = biological target: T1, biotinylated recombinant human IL-12Rβ2 …; experiment: ELISA, periplasmic extract on biotinylated human IL-12Rβ2; control streptavidin-coated blocked wells
[2] = biological target: T2, biotinylated recombinant mouse IL-12Rβ2 …; experiment: ELISA, periplasmic extract on biotinylated mouse IL-12Rβ2; control streptavidin-coated blocked wells

| ELISA binding hIL-12RB2/control [1] | ELISA binding mIL-12RB2/control [2] | Binder |
| --- | --- | --- |
| 0.918 ratio to control | 5.21 ratio to control | anti-IL-12Rβ2 VHH clone 2CAM56 (VHH, Tested as periplasmic extract; CDR3 group 28; also called 20490) VHH: QVQLQESGGGEVQAGGSLRLSCVASGRTFSVYTTGWFRQAPGKERELVAGMSGTRTYYADSVKGRFTISRDNAKNTVYLQMNSLKPDDTAVYYCAERRYGGPSLVWDEYDYRGQGTQVTVSS |
| 0.87 ratio to control | 7.74 ratio to control | anti-IL-12Rβ2 VHH clone 2CAM67 (VHH, Tested as periplasmic extract; CDR3 group 28; also called 20494) VHH: QVQLQESGGGEVQAGGSLRLSCVASGRTFSVYTTGWFRQAPGKEREFVAGMSGTRTYYADSVKGRFTISRDNAKNTVYLQMNSLKPDDTAVYYCAERRYGGPSLVWDEYDYRGQGTQVTVSS |
| 1.51 ratio to control | 3.22 ratio to control | anti-IL-12Rβ2 VHH clone 2CAM18 (VHH, Tested as periplasmic extract; CDR3 group 45; also called 20475) VHH: QVQLQESGGGLVQVGDSLKLSCVASGTTFSTHVMAWYRQAPGKQREWVASIDSAGTTNYKDAVKGRFTISRDNVKRTVYLQMNNLKPEDSAVYLCSIPSRNAWGQGTQVTVSS |
| 1 ratio to control | 8.02 ratio to control | anti-IL-12Rβ2 VHH clone 2CAM39 (VHH, Tested as periplasmic extract; CDR3 group 46; also called 20482) VHH: QVQLQESGGGLVQAGGSLRLSCAASGRTFSTYAMGWFRQAPGKEREFVAAISWSGGSTYYADSVKGRFTISRDNAKNTGYLQMNSLKPEDTAVYVCAADAEDPILYGSSWNNRRKEYDYWGQGTQVTVSS |
| 0.969 ratio to control | 4.91 ratio to control | anti-IL-12Rβ2 VHH clone 2CAM47 (VHH, Tested as periplasmic extract; CDR3 group 27; also called 20487) VHH: QVQLQESGGGVVQEGASLRLSCAASGRNLSTYAMGWIRQAPGKEREFVAAISWAGSTTYYADSVKGRFIISRDNAKNTLNLQMNSLKPEDTAVYYCAAPPYVTTTYYATPPSDIRDYHYWGQGTQVTVSS |
| 1.31 ratio to control | 6.6 ratio to control | anti-IL-12Rβ2 VHH clone 3CAM11 (VHH, Tested as periplasmic extract; CDR3 group 27; also called 20508) VHH: QVQLQESGGGLVQAGGSLRLSCAASGRNLSTYAMGWIRQAPGKEREFVAAISWAGSTTYYADSVKGRFIISRDNAKNTLNLQMNSLKPEDTAVYYCAAPPYVTTTYYATPPSDIRDYHYWGQGTQVTVSS |
| 0.974 ratio to control | 10.4 ratio to control | anti-IL-12Rβ2 VHH clone 2CAM45 (VHH, Tested as periplasmic extract; CDR3 group 47; also called 20485) VHH: QVQLQESGGGLVQAGGSLRLSCAASGFTFDDYAIGWFRQAPGKEREGISCISSSDYGTYYAGSVKGRFTISSDNAKNTVYLQMNSLKPEDTAVYYCAAEAISEYDCLGINYGMDYWGKGTQVTVSS |
| 0.998 ratio to control | 62.3 ratio to control | anti-IL-12Rβ2 VHH clone 2CAM88 (VHH, Tested as periplasmic extract; CDR3 group 17) VHH: QVQLQESGGGLVPPGDSLRLSCAASGRTFSSYTMGWFRQAPGKEREFVARISQDGGSTYYADSMKGRFTVARDNAKNTVYLQMNSLKPEDTAVYYCAADMIKWGLRVGVDSFKYWGQGTQVTVSS |
| 1.09 ratio to control | 8.27 ratio to control | anti-IL-12Rβ2 VHH clone 2CAM9 (VHH, Tested as periplasmic extract; CDR3 group 19) VHH: QVQLQESGGGLVQAGMSLRLSCAASGLTFSWYRMGWFRQAPGKEREFVAGWYGVLTQYRDSVKGRFTISRDDAKNTVYLQMNSLKPEDTAVYYCAASLGGNYRSYEYDYWGQGTQVTVSS |
| 0.9 ratio to control | 3.38 ratio to control | anti-IL-12Rβ2 VHH clone 2CAM12 (VHH, Tested as periplasmic extract; CDR3 group 19) VHH: QVQLQESGGGLVQAGGSLRLSCAASGRTFSWYRMGWFRQAPGKEREFVAGWYGVLTQYRDSVKGRFTISRDDAKNTVYLQMNSLKPEDTAVYYCAASLGGNYRSYEYDYWGQGTQVTVSS |
| 1.41 ratio to control | 6.72 ratio to control | anti-IL-12Rβ2 VHH clone 3CRM95 (VHH, Tested as periplasmic extract; CDR3 group 44; also called 20465) VHH: QVQLQESGGGLVQAGDFLRLSCVFSGGTFGDYSMGWFRQAPGKEREFVAAIRWSGDSTQYAEAVKGRFTISRDNAKSTVYLQMSSLKPEDTAVYYCAADPSYYIGPNHTPSRYRDWGQGTQVTVSS |
| 0.873 ratio to control | 3.73 ratio to control | anti-IL-12Rβ2 VHH clone 2CRM88 (VHH, Tested as periplasmic extract; CDR3 group 18; also called 20453) VHH: QVQLQESGGGLVQAGGSLRLSCQASGRTFSNYRMGWFRQAPGKEREFVAGINWDGGHTYYTDSVKGRFTISRDNAKNTVYLQMNSLKPEDTAVYQCAVRVREYGSSRYEDQFDYWGQGTQVTVSS |
| 0.942 ratio to control | 6.09 ratio to control | anti-IL-12Rβ2 VHH clone 2CRM42 (VHH, Tested as periplasmic extract; CDR3 group 18; also called 20449) VHH: QVQLQESGGGLVQPGESLRLSCQASGRTFSNYRMGWFRQAPGKEREFVAGINWDGGHTYYTDSVKGRFTISRDNAKNTVYLQMNSLKPEDTAVYQCAVRVREYGSSRYEDQFDYWGQGTQVTVSS |
| 0.947 ratio to control | 4.12 ratio to control | anti-IL-12Rβ2 VHH clone 2CRM16 (VHH, Tested as periplasmic extract; CDR3 group 18) VHH: QVQLQESGGGLVQAGGSLRLSCAASGRTFSNYRMGWFRQAPGKEREFVAGINWDGGHTYYTDSVKGRFTISRDNAKNTVYLQMNSLKPEDTAVYQCAVRVREYGSSRYEDQFDYWGQGTQVTVSS |
| 0.993 ratio to control | 5.86 ratio to control | anti-IL-12Rβ2 VHH clone 2CRM40 (VHH, Tested as periplasmic extract; CDR3 group 24; also called 20448) VHH: QVQLQESGGGLVQTGGSLRLSCAASGRTYAMAWFRQAPGKEREFAAVIIGGDRTYYANSVKDRFTISRDNAKETVYLQMNNLKPEDTAVYYCAANRRLYNSGRGYSQSEYEYWGQGTQVTVSS |
| 1 ratio to control | 13.5 ratio to control | anti-IL-12Rβ2 VHH clone 2CRM28 (VHH, Tested as periplasmic extract; CDR3 group 40) VHH: QVQLQESGGGLVQPGGSLRLSCAASGRAWNEYNMGWFRQAPGKEREFVALIWWSSGNTYYADSVKGRFTISRDKVKNTVYLQMNSLKPEDTAVYYCAAGPTFNKYEYWGQGTQVTVSS |
| 1.38 ratio to control | – | anti-IL-12Rβ2 VHH clone 3CRM66 (VHH, Tested as periplasmic extract; CDR3 group 42; also called 20461) VHH: QVQLQESGGGLVQPGGSLRLSCAASGSTFSIHAMGWYRQAPGKKRELVARITRGGSTNYADSVKGRFTISVDNAKNTVYLQMNSLKPEDTAVYDCNAETGWGEWDDYWGQGTQVTVSS |
| 1.25 ratio to control | 5.98 ratio to control | anti-IL-12Rβ2 VHH clone 3CAM65 (VHH, Tested as periplasmic extract; CDR3 group 49; also called 20513) VHH: QVQLQESGGGLVQAGGSLRLSCAPSGRTFTTYVMGWFRQAPGKEREFVAHISWSGGRTYYADSVKGRFTISRDNAKNTSYLQMNSLKPEDTAVYYCAAARSDAVRIGYAEGYEYWGQGTQVTVSS |
| 1.14 ratio to control | 40.9 ratio to control | anti-IL-12Rβ2 VHH clone 3CAM10 (VHH, Tested as periplasmic extract; CDR3 group 25; also called 20507) VHH: QVQLQESGGGLVQAGGSLRLSCAASGRTFSDYPMAWFRQAPGKEREFVAGISNGGTAYYADSVKGRFTISRDNTRNTVYLQMNRLKVEDTAVYYCAAVHLLSNLRGADPHEADYWGQGTQVTVSS |
| 1.2 ratio to control | 3.3 ratio to control | anti-IL-12Rβ2 VHH clone 3CAM1 (VHH, Tested as periplasmic extract; CDR3 group 48) VHH: QVQLQESGGGLVQAGGSLRLSCAASGRTFGSHRMGWFRQAPGQEREFVAAIAWRGGTQYYTDSVKGRFTISRDNANNTVYLQMNSLKPEDAAVYYCVAGEGSSWGDITDPRRYVFWGQGTQVTVSS |
| 1.01 ratio to control | 9.78 ratio to control | anti-IL-12Rβ2 VHH clone 3CAMS63 (VHH, Tested as periplasmic extract; CDR3 group 26; also called 20552) VHH: QVQLQESGGGLVQAGGSLRLSCAASGRTFSNYAMGWFRQAPGKEREFVAAINRSGTTLYVDSVKGRFTISRDNAKNTVALQMNSLKPEDTAVYYCVAGMPFSYSDYPRDSKYDYWGQGTQVTVSS |
